From patent US20130243795A1 (Janssen / Centocor, published 2013)

T1: Human CD27 ECD truncated (ECD 1-121, cleavage site, His6) (human)
T1 construct: also called human CD27 ECD with His Tag; CD27-His
T1 chain: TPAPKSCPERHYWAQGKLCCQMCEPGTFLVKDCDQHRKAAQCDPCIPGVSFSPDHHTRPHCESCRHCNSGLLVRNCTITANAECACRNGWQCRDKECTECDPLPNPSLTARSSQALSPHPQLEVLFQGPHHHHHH


How the values were obtained:
[1] = molecular target: T2, Human CD27, full length on the cell surface (human, UniProt P26842 21-260); assay: cell-based or functional assay
[2] = molecular target: T2, Human CD27, full length on the cell …; assay: cell-based or functional assay; remark: listed apart in the source
[3] = molecular target: T3, Recombinant human CD27/Fc chimera (R&D Systems, Cat#382-CD) (human, UniProt P26842 20-191); assay: inhibition of IM-9 (CD70+) cell binding to immobilized CD27/Fc
T3 construct: extracellular domain; bought protein; also called huCD27-Fc; Hu CD27 Fc; Fc part of the bought chimera not given
T3 sequence (P26842 20-191, change not shown): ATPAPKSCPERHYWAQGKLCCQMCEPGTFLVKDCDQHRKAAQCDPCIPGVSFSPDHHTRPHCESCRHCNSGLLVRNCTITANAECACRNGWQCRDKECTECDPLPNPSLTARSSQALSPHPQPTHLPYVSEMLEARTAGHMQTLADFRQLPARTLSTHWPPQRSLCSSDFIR

[4] = molecular target: T4, Human CD27 ECD, monomeric soluble (construct limits not stated) (human, UniProt P26842 20-191); assay: Biacore SPR; mAb captured via anti-mouse Fc; CD27 ECD as analyte; 25 C
T4 construct: extracellular domain; target of the Biacore assays; also called monomeric soluble CD27; CD27-His
T4 sequence (P26842 20-191): as the sequence (P26842 20-191, change not shown) above

[5] = molecular target: T4, Human CD27 ECD, monomeric soluble …; assay: Biacore SPR, purified mAb
[6] = molecular target: T1, Human CD27 ECD truncated (ECD 1-121, …); assay: ProteOn SPR, purified mAb, CD27-His
[7] = molecular target: T4, Human CD27 ECD, monomeric soluble …; assay: Biacore SPR, purified mAb; reference M160
[8] = molecular target: T4, Human CD27 ECD, monomeric soluble …; assay: Biacore SPR, purified mAb; reference M166
[9] = molecular target: T4, Human CD27 ECD, monomeric soluble …; assay: Biacore SPR, purified mAb; reference M158
[10] = molecular target: T1, Human CD27 ECD truncated (ECD 1-121, …); assay: ProteOn SPR, purified mAb, CD27-His
[11] = molecular target: T5, Human CD27 ECD (ECD 1-173, His6) (human, UniProt P26842 21-193, biotinylated on amine residues (NHS-ester) where used biotinylated); assay: Fab format, pIX display and binding
T5 construct: also called biotinylated human CD27 ECD

Binder	Kd [5] [pM]	koff [5] [s⁻¹]	kon [5] [M⁻¹ s⁻¹]	Kd [6] [pM]	koff [6] [s⁻¹]	kon [6] [M⁻¹ s⁻¹]	other results
C2192 (antibody, V domains shown) VH: QVQLQQSGPELVKPGASVKISCKASGYAFSSSWMNWVKQRPGKGLEWIGRIYPGDGDTNYNGKFKGKATLTADKSSSTAYMQLSSLTSEDSAVYFCARRWDGGNYFFDYWGQGTTLTVSS VL: DIVMTQSHKFMSTSVGDRVSITCMASQDVGTAVAWYQRRPGQSPKLLIYWTSTRHTGVPDRFTGSGSGTDFTLTISNVQSEDLADYFCQQYSSYPLTFGSGTKLEIK							Agonism at 50 ug/ml (fold-increase in reporter gene signal relative to isotype control) [1]: 5.39 fold; NF-kB reporter IC50 [1]: 0.232 µg/mL; Plasma blast differentiation % Inhibition at 2.5 ug/ml [2]: 74%; T-Cell Proliferation % Inhibition at highest concentration (30 ug/ml) [2]: 75.7%; T-Cell Proliferation - CD4+ Cells IC50 [2]: 0.445 µg/mL; IC50 [3]: 0.054 µg/mL; Kd [4]: 210 pM
M169 (antibody, V domains shown, isotype not restated (path 2 mAbs were IgG4 Ser to Pro, Ala/Ala / kappa); also called H221, L219; CM169) VH: EVQLVQSGAEVKKPGESLKISCKGSGYAFSSSWMNWVRQMPGKGLEWMGRIYSGDGDTNYNGKFKGQVTISADKSISTAYLQWSSLKASDTAMYYCARSDYYGDYGFAYWGQGTLVTVSS VL: DIQMTQSPSSLSASVGDRVTITCKASQSVDYAGDSFMNWYQQKPGKAPKLLIYAASNLESGVPSRFSGSGSGTDFTLTISSLQPEDFATYYCQQSNEDPYTFGQGTKVEIK	69	0.000102	1.48e+06	59	0.000139	2.36e+06	fold improvement in KD against the corresponding VH1-46 variant [7]: 2 fold
M170 (antibody, V domains shown, isotype not restated (path 2); also called H221, L217) VH: EVQLVQSGAEVKKPGESLKISCKGSGYAFSSSWMNWVRQMPGKGLEWMGRIYSGDGDTNYNGKFKGQVTISADKSISTAYLQWSSLKASDTAMYYCARSDYYGDYGFAYWGQGTLVTVSS VL: DIQMTQSPSSLSASVGDRVTITCKASQSVDYAHESFMNWYQQKPGKAPKLLIYAASNLESGVPSRFSGSGSGTDFTLTISSLQPEDFATYYCQQSNEDPYTFGQGTKVEIK	70	0.000116	1.66e+06				fold improvement in KD against the corresponding VH1-46 variant [8]: 2 fold
M171 (antibody, V domains shown, isotype not restated (path 2); also called H221, L220) VH: EVQLVQSGAEVKKPGESLKISCKGSGYAFSSSWMNWVRQMPGKGLEWMGRIYSGDGDTNYNGKFKGQVTISADKSISTAYLQWSSLKASDTAMYYCARSDYYGDYGFAYWGQGTLVTVSS VL: DIQMTQSPSSLSASVGDRVTITCKASQSVDYAGDSYMNWYQQKPGKAPKLLIYAASNLESGVPSRFSGSGSGTDFTLTISSLQPEDFATYYCQQSNEDPYTFGQGTKVEIK	234	0.000358	1.53e+06				fold improvement in KD against the corresponding VH1-46 variant [9]: 2 fold
M668 (antibody, V domains shown, isotype not restated (path 2); also called H255,L266) VH: QVQLVQSGAEVKKPGASVKVSCKASGYAFSSSWMNWVRQAPGQGLEWMGRIYSGDADTNYAQKFKGRVTMTRDTSTSTVYMELSSLRSEDTAVYYCARSDYYGDYGFAYWGQGTLVTVSS VL: DIQMTQSPSSLSASVGDRVTITCKASQSVDYAGESFMNWYQQKPGKAPKLLIYAASNLESGVPSRFSGSGSGTDFTLTISSLQPEDFATYYCQQSNEDPYTFGQGTKVEIK				60	0.000129	2.14e+06	fold lower KD against the parental mAb M160 [10]: ~2 fold
M671 (antibody, V domains shown, isotype not restated (path 2); also called H258,L266) VH: EVQLVQSGAEVKKPGESLKISCKGSGYAFSSSWMNWVRQMPGKGLEWMGRIYSGDADTNYNQKFKGQVTISADKSISTAYLQWSSLKASDTAMYYCARSDYYGDYGFAYWGQGTLVTVSS VL: DIQMTQSPSSLSASVGDRVTITCKASQSVDYAGESFMNWYQQKPGKAPKLLIYAASNLESGVPSRFSGSGSGTDFTLTISSLQPEDFATYYCQQSNEDPYTFGQGTKVEIK				39	9.73e-05	2.52e+06	fold lower KD against the parental mAb M169 [10]: ~2 fold
Parent Fab (VH3-23/Vk012 HFR Fab of C2191) (Fab, V domains shown, Fab with human CH1 and Ck in the pIX phage display vector; also called H39/L40; parental HFR Fab) VH: EVQLLESGGGLVQPGGSLRLSCAASGFTFSSYTMSWVRQAPGKGLEWVSYISSGGGNTYYPDSVKGRFTISRDNSKNTLYLQMNSLRAEDTAVYYCARHRGNPFDYWGQGTLVTVSS VL: DIQMTQSPSSLSASVGDRVTITCRASKSVSTSGYSFMHWYQQKPGKAPKLLIYLASNLESGVPSRFSGSGSGTDFTLTISSLQPEDFATYYCQHSRELPWTFGQGTKVEIK							binding result [11]: binds
M55 (VH1-46/Vk012 HFR Fab of C2177) (Fab, V domains shown, Fab with human CH1 and Ck in the pIX phage display vector; also called H25/L36; parent HFR Fab) VH: QVQLVQSGAEVKKPGASVKVSCKASGYAFSSSWMNWVRQAPGQGLEWMGRIYPGDGDTNYNGKFKGRVTMTRDTSTSTVYMELSSLRSEDTAVYYCARSDYYGDYGFAYWGQGTLVTVSS VL: DIQMTQSPSSLSASVGDRVTITCKASQSVDYAGDSYMNWYQQKPGKAPKLLIYAASNLESGVPSRFSGSGSGTDFTLTISSLQPEDFATYYCQQSNEDPYTFGQGTKLEIK							binding result [11]: binds
